Measurements published in patent US20140341939A1 (NATIONAL UNIVERSITY CORPORATION KOCHI UNIVERSITY, priority 2011, published 2014).
Where no end group is shown, it is not given here. [ ]: non-standard residue; d: D form. The star is where a group is joined. Biotin = O=C1N[C@H]2[C@H](CS[C@H]2CCCCC(=O)*)N1; βAla = NCCC(=O)O

Legend:
[1] = biological target: T1, HLA-DR molecule (Homo sapiens, UniProt P01903+P01911, A100R/A169T/D86S/F76Y/I96L/K127E/L162R/M171V/N62H/P40V/Q125Y/R42H/S133A/S149N/S66Y/V115G/V209L/W38E); assay: Binding of biotinylated W332 peptide to CH1-DR4 cell; conditions: cultured 5 hr, FITC-streptavidin, flow cytometry (FIG. 29A)
T1 construct: expressed in transfected cells; host or cells: CH1-DR4 (CH1-DRB1*04:05) cells

[2] = biological target: T2, HLA-DR4 molecule (Homo sapiens, UniProt P01903+P01911, A100R/A169T/D86S/F76Y/I96L/K127E/L162R/M171V/N62H/P40V/Q125Y/R42H/S133A/S149N/S66Y/V115G/V209L/W38E); assay: Peptide binding to HLA-DR4 molecule on CH1-DR4 cells with p-chlorophenol; conditions: PCP added, 37° C. 4 hr, FITC-streptavidin (FIG. 31)
T2 construct: expressed in transfected cells; host or cells: CH1-DRB1*04:05 (CH1-DR4) cells
Experimental: CH1-DRB1*04:05 cells (CH1-DR4 cells) were suspended in 20% FCS IMDM ([…]) at 2×10^6/ml, so that 50 μl could provide 1×10^5 cells/well in a 96 well U plate. Then, 20 μM bTR174 (PSK^bio[…]^bioPβA: SEQ ID NO: 41) (biotinylation index peptide) was added at 100 μl per well, and IMDM containing 8 mM PCP was further added at 50 μl per well, and finally, CH1-DR4 cells were added at 50 μl (1×10^5/well) and the mixture was incubated at 37° C. for 4 hr. Free peptide was removed by centrifugation, the cells were stained with FITC-streptavidin, and measured by flow cytometer. […] By adding a competitive peptide, which is generated by adding a peptidase resistant sequence to the terminal of an unlabeled peptide, to this experiment system, the binding activity of the unlabeled peptide can be quantitatively measured.

binding to cell that expresses HLA-DR molecule [1]	Substance	binding of biotin-labeled peptide to HLA-DR4 molecule [2]
bind to CH1-DR4 cell	PSK^bioKRYFKLSHLQMHSRKHK^bioPβA (PSK(Biotin)KRYFKLSHLQMHSRKHK(Biotin)P[βAla]) [PbW332bPβ]	–
–	PSK^bioREFKLSKVWRDQK^bioPβA (PSK(Biotin)REFKLSKVWRDQK(Biotin)P[βAla]) [bTR174, biotinylation index peptide]	replaced a peptide endogenously bound to an HLA-DR4 molecule, in a PCP concentration dependent manner
